# Reference: patent US20190338038A1 (CELLERANT THERAPEUTICS, published 2019)
# Where two headings read alike, the source gives them in different places.
# T1: human interleukin 1 receptor accessory protein, membrane-bound form on cells (human, UniProt Q9NPH3 21-570)
# T1 construct: On IL1-RAP-transfected 293 cells, AML cell lines (EOL-1, HNT-34, OCI-AML2, OCI-AML3), primary AML cells and HEK-Blue IL-1β cells; also called IL1-RAP; receptor IL1-RAP
# T1 sequence: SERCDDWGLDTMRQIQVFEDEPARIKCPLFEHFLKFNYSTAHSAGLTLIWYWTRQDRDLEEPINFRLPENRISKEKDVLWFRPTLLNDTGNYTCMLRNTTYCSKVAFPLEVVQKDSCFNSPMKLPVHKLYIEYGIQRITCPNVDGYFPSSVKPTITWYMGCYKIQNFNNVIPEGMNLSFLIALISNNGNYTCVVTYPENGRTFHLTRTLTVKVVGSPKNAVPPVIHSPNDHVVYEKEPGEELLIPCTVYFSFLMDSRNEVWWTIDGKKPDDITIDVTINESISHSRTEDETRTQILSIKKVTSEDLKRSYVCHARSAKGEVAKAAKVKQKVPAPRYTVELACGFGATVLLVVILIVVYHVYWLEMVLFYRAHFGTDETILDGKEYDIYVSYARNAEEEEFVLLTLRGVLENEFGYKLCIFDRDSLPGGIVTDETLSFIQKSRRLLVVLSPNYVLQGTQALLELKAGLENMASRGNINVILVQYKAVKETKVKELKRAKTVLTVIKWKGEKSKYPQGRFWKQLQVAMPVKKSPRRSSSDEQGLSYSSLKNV
# T2: recombinant mouse IL1-RAP (mouse, UniProt Q61730 21-359, limits assumed)
# T2 sequence (looked up): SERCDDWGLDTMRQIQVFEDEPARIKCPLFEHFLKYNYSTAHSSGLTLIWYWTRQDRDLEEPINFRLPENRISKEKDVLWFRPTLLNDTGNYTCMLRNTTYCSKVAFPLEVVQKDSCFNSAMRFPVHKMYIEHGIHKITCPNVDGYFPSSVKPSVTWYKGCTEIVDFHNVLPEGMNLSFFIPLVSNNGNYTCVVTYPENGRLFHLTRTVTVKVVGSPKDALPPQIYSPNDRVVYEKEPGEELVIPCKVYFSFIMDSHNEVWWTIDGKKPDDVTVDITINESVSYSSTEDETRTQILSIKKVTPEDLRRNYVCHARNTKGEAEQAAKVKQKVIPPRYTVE
# T3: IL1-RAP (antigen of the kinetic measurements of Tables 5A and 5B) (human, UniProt Q9NPH3 21-359, limits assumed)
# T3 sequence: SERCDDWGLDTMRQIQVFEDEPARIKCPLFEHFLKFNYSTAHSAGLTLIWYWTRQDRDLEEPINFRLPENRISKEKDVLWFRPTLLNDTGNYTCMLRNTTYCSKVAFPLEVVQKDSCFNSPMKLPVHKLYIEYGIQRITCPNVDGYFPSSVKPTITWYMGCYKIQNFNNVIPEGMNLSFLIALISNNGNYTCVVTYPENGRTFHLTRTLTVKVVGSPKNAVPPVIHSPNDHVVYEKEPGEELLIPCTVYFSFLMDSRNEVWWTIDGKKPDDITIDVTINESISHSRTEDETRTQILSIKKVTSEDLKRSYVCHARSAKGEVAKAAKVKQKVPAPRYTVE
# Key:
# [1] = target: human interleukin 1 receptor accessory protein, membrane-bound form on cells (human) (UniProt Q9NPH3); experiment: flow cytometry on primary AML sample 13-AML-02 PB, antibody at 2 ug/mL per paragraph 390
# [2] = target: T1, human interleukin 1 receptor accessory …; experiment: FACS titration on EOL-1 cells
# [3] = target: T1, human interleukin 1 receptor accessory …; experiment: FACS titration on HNT-34 cells
# [4] = target: T2, recombinant mouse IL1-RAP; experiment: FACS (GeoMean), bar series mIL1RAP
# [5] = target: T1, human interleukin 1 receptor accessory …; experiment: FACS titration on IL1-RAP transfected 293 cells
# [6] = target: T1, human interleukin 1 receptor accessory …; experiment: FACS titration on HNT-34 cells in PBS, no competitor
# [7] = target: human interleukin 1 receptor accessory protein, membrane-bound form on cells (human) (UniProt Q9NPH3); experiment: FACS on EOL-1 cells, FITC; antibody concentration not given
# [8] = target: T1, human interleukin 1 receptor accessory …; experiment: cell-based or functional assay
# [9] = target: T1, human interleukin 1 receptor accessory …; experiment: cell-based or functional assay; remark: listed apart in the source
# [10] = target: T3, IL1-RAP (antigen of the kinetic …); experiment: kinetics, Table 5A; method and antigen form not stated
# [11] = target: T3, IL1-RAP (antigen of the kinetic …); experiment: kinetics, Table 5B; method and antigen form not stated
# [12] = target: T1, human interleukin 1 receptor accessory …; experiment: FACS on EOL-1 cells, FITC; antibody concentration not given
molecule,measurement,setting,value
mIgG (antibody),"% of cells in the upper right quadrant (CD34 APC high, stain positive)",[1],1.57%
"anti-IL1-RAP antibody clone 56.12G6 (antibody, V domains shown, Mouse monoclonal antibody) VH: RSNYSSLGAELVKPGASVTLSCEASGYTFTSYWIHWVKQRPGQGLEWIGEINPSHGHTTYNEKFKNKATLTVDKSSSTAYMQVSSLTSEDSAVYYCTRHYGSYYFDLWGQGTTLTVSS VL: QIVLTQSPAIMSAFPGEKVTMTCRASSSVSYMHWYRQKSGTFPKRWIYDTSKLASGVPARFSGSGSGTSYSLTISSMEAEDAATYYCQQWSTNPITFGAGTKLELK",EC50 (read off the curve),[2],~0.6 µg/mL
same,EC50 (read off the curve),[3],~0.2 µg/mL
same,binding result,[4],no binding (tested: not given)
same,EC50 (read off the curve),[5],~0.4 µg/mL
same,EC50 (read off the curve),[6],~0.9 µg/mL
"Chi54.9D7 HC#1 / h54.9D7 LC2 (antibody, V domains shown) VH: HVQLQQSGPELVRPGASVKLSCKASGYIFITYWMNWVKQRPGQGLEWVGQIFPASGTTYYNELFEGKATLTVDTSSNTAYMHLTSLTSEDSAVYYCARTDFYRYDGGYALDYWGQGTSLTVSS VL: DIQLTQSPSSLSASVGDRATITCRASQSVSTSGYSSMHWYQQKPGKAPKLLIYYASDLESGVPSRFSGSGSGTDFTLTISSVQPEDFATYYCHHSWGIPMYTFGQGTKLEIKR",MFI,[7],7.8
"anti-IL1-RAP antibody clone 54.9D7 (antibody, V domains shown, Mouse monoclonal antibody from a hybridoma) VH: HVQLQQSGPELVRPGASVKLSCKASGYIFITYWMNWVKQRPGQGLEWVGQIFPASGTTYYNELFEGKATLTVDTSSNTAYMHLTSLTSEDSAVYYCARTDFYRYDGGYALDYWGQGTSLTVSS VL: DIVLTQSPISLAVFLGQRATISCRASQSVSTSGYSSMHWYQQKAGQPPKLLIKYASDLESGVPVRFSGSGSGTDFILNIHPVEVEDIATYYCHHSWGIPMYTFGGGTKLEIKR","IC50 of inhibition of IL-1β-induced NF-κB signaling, HEK-Blue IL-1β cells",[8],0.0323 µg/mL
same,"% Inhibition at 10 ug/mL of IL-1β-induced NF-κB signaling, HEK-Blue IL-1β cells",[9],92.3%
same,"IC50 of inhibition of IL-1β-induced NF-κB signaling, HEK-Blue IL-1β cells",[9],0.03 µg/mL
same,binding result,[4],no binding (tested: not given)
"humanized clone of 54.9D7 hH2L3 (antibody, V domains shown, Humanized; also called 54.9D7 H2L3) VH: QVQLVQSGAEVKKPGASVKVSCKASGYIFITYWMNWVRQAPGQGLEWVGQIFPASGTTYYAQKFQGRVTMTVDTSTSTVYMELSSLRSEDTAVYYCARTDFYRYDGGYALDYWGQGTLVTVSS VL: DIQLTQSPSSLSASVGDRATITCRASQSVSTSGYSSMHWYQQKPGKAPKLLIKYASDLESGVPSRFSGSGSGTDFTLTISSVQPEDFATYYCHHSWGIPMYTFGQGTKLEIKR",Kd,[10],< 0.001 nM
same,koff,[10],< 1e-07 s⁻¹
same,kon,[10],141000 M⁻¹ s⁻¹
same,Kd,[11],< 0.001 nM
same,koff,[11],< 1e-07 s⁻¹
same,kon,[11],169000 M⁻¹ s⁻¹
same,MFI,[12],124
"Chi54.9D7 HC#1 / h54.9D7 LC3 (antibody, V domains shown, also called chimeric 54.9D7 heavy chain with humanized LC3) VH: HVQLQQSGPELVRPGASVKLSCKASGYIFITYWMNWVKQRPGQGLEWVGQIFPASGTTYYNELFEGKATLTVDTSSNTAYMHLTSLTSEDSAVYYCARTDFYRYDGGYALDYWGQGTSLTVSS VL: DIQLTQSPSSLSASVGDRATITCRASQSVSTSGYSSMHWYQQKPGKAPKLLIKYASDLESGVPSRFSGSGSGTDFTLTISSVQPEDFATYYCHHSWGIPMYTFGQGTKLEIKR",MFI,[12],121
"humanized clone of 54.9D7 hH1L3 (antibody, V domains shown, Humanized; also called 54.9D7 H1L3) VH: QVQLVQSGAEVKKPGASVKVSCKASGYIFITYWMNWVRQAPGQGLEWMGQIFPASGTTYYAQKFQGRVTMTRDTSTSTVYMELSSLRSEDTAVYYCARTDFYRYDGGYALDYWGQGTLVTVSS VL: DIQLTQSPSSLSASVGDRATITCRASQSVSTSGYSSMHWYQQKPGKAPKLLIKYASDLESGVPSRFSGSGSGTDFTLTISSVQPEDFATYYCHHSWGIPMYTFGQGTKLEIKR",Kd,[10],0.556 nM
same,koff,[10],7.57e-05 s⁻¹
same,kon,[10],136000 M⁻¹ s⁻¹
same,Kd,[11],0.229 nM
same,koff,[11],3.75e-05 s⁻¹
same,kon,[11],164000 M⁻¹ s⁻¹
same,MFI,[12],100
"humanized clone of 54.9D7 hH3L3 (antibody, V domains shown, Humanized; also called 54.9D7 H3L3) VH: QVQLVQSGAEVKKPGASVKLSCKASGYIFITYWMNWVRQAPGQGLEWVGQIFPASGTTYYAQKFQGRATLTVDTSTSTAYMELSSLRSEDTAVYYCARTDFYRYDGGYALDYWGQGTLLTVSS VL: DIQLTQSPSSLSASVGDRATITCRASQSVSTSGYSSMHWYQQKPGKAPKLLIKYASDLESGVPSRFSGSGSGTDFTLTISSVQPEDFATYYCHHSWGIPMYTFGQGTKLEIKR",Kd,[10],< 0.001 nM
same,koff,[10],< 1e-07 s⁻¹
same,kon,[10],177000 M⁻¹ s⁻¹
same,Kd,[11],< 0.001 nM
same,koff,[11],< 1e-07 s⁻¹
same,kon,[11],193000 M⁻¹ s⁻¹
same,MFI,[12],94.3
"h54.9D7 HC2 / Chi54.9D7 LC#1 (antibody, V domains shown, also called humanized 54.9D7 HC2 with the chimeric light chain) VH: QVQLVQSGAEVKKPGASVKVSCKASGYIFITYWMNWVRQAPGQGLEWVGQIFPASGTTYYAQKFQGRVTMTVDTSTSTVYMELSSLRSEDTAVYYCARTDFYRYDGGYALDYWGQGTLVTVSS VL: DIVLTQSPISLAVFLGQRATISCRASQSVSTSGYSSMHWYQQKAGQPPKLLIKYASDLESGVPVRFSGSGSGTDFILNIHPVEVEDIATYYCHHSWGIPMYTFGGGTKLEIKR",MFI,[12],75.1
"h54.9D7 HC3 / Chi54.9D7 LC#1 (antibody, V domains shown, also called humanized 54.9D7 HC3 with the chimeric light chain) VH: QVQLVQSGAEVKKPGASVKLSCKASGYIFITYWMNWVRQAPGQGLEWVGQIFPASGTTYYAQKFQGRATLTVDTSTSTAYMELSSLRSEDTAVYYCARTDFYRYDGGYALDYWGQGTLLTVSS VL: DIVLTQSPISLAVFLGQRATISCRASQSVSTSGYSSMHWYQQKAGQPPKLLIKYASDLESGVPVRFSGSGSGTDFILNIHPVEVEDIATYYCHHSWGIPMYTFGGGTKLEIKR",MFI,[12],20
"h54.9D7 HC1 / Chi54.9D7 LC#1 (antibody, V domains shown, also called humanized 54.9D7 HC1 with the chimeric light chain) VH: QVQLVQSGAEVKKPGASVKVSCKASGYIFITYWMNWVRQAPGQGLEWMGQIFPASGTTYYAQKFQGRVTMTRDTSTSTVYMELSSLRSEDTAVYYCARTDFYRYDGGYALDYWGQGTLVTVSS VL: DIVLTQSPISLAVFLGQRATISCRASQSVSTSGYSSMHWYQQKAGQPPKLLIKYASDLESGVPVRFSGSGSGTDFILNIHPVEVEDIATYYCHHSWGIPMYTFGGGTKLEIKR",MFI,[12],21.3
